Paper PMC13036084, “Cryo-EM structure of Chlamydomonas reinhardtii Photosystem I complexed with cytochrome c6” (Nature Communications, 2026)
Positions count from the first letter of the chain named. In names and notes the source's numbering stands. One block for each binder: values may come before it.

Biological target: T1, PSAF subunit of Chlamydomonas reinhardtii Photosystem I (Chlamydomonas reinhardtii, UniProt P12356 63-227)
T1 construct: PSAF, Photosystem I subunit, Chlamydomonas reinhardtii; the transit peptide segment is included in the numbering of the PDB data; numbers count on: the mature protein; Stood in the experiment as a subunit of the PSI complex m2
T1 sequence (looked up): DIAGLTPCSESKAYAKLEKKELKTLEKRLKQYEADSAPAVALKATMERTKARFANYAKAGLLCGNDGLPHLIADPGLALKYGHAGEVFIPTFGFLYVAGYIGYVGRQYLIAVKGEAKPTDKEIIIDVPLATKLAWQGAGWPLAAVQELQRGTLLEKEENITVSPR
Test: cross-linking; non-activated Cyt c6 (4 μM) and PSI (40 μg Chl/mL) in 30 mM HEPES/KOH pH 7.5, 1 mM ascorbate, 0.1 mM DAD, 3 mM MgCl2, 0.03% α-DDM with 5 mM EDC and 10 mM sulfo-NHS, 45 min, room temperature, dark; quenched with 50 mM Tris pH 8.0; SDS-PAGE and Western blot with anti-Cyt c6
Conditions: both partners purified

binding result: binds
B1: Chlamydomonas reinhardtii cytochrome c6 E69Q/E70Q (natural protein)
chain: ADLALGAQVFNGNCAACHMGGRNSVMPEKTLDKAALEQYLDGGFKVESIIYQVENGKGAMPAWADRLSQQEIQAVAEYVFKQATDAAWKY
modifications: heme group (heme protein)
notes: cytochrome c6, Chlamydomonas reinhardtii; also called Cyt c6 (E69Q/E70Q); E69Q/E70Q double mutant; source: E. coli BL21, co-transformed with pEC86 (Ccm genes), purified (DEAE anion exchange, size exclusion)

binding result: binds
B2: Chlamydomonas reinhardtii cytochrome c6 E71Q (natural protein)
chain: B1 chain with Q69E, Q70E, E71Q
modifications: heme group (heme protein)
notes: cytochrome c6, Chlamydomonas reinhardtii; also called Cyt c6 (E71Q); source: E. coli BL21, co-transformed with pEC86 (Ccm genes), purified (DEAE anion exchange, size exclusion)
